The results in this text go back to article PMC4973710.

The assay has as its target CPR-DA: human cytochrome P450 reductase doubly labelled with Cy5 (donor) and Alexa 750 (acceptor) (human) (UniProt P16435).
Chain of UniProt P16435 (P16435 61-677): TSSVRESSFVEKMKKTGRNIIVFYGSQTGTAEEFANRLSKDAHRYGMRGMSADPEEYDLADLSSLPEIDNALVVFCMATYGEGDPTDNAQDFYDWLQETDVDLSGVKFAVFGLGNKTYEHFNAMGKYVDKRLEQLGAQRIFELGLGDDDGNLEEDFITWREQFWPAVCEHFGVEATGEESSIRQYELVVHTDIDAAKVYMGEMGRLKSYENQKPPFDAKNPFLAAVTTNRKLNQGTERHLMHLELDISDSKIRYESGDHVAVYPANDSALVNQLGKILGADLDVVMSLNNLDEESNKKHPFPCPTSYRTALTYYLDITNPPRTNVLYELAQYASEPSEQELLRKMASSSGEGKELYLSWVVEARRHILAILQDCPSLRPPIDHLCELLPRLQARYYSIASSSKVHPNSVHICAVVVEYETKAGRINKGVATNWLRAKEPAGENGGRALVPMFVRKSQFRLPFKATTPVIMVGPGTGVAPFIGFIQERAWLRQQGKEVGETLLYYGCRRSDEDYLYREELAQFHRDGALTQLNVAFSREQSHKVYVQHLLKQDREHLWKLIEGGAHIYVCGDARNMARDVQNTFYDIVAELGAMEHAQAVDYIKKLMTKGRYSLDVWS

As for “bovine heart cytochrome c (from UniProt P62894 1-105) (natural protein)”, the second-order rate constant of ferric cyt c reduction by equimolar NADPH-reduced CPR-DA, first kinetic phase (UV-Vis double-mixing stopped-flow) stood at 1.01e+06 M⁻¹ s⁻¹ and the second-order rate constant of ferric cyt c reduction by equimolar NADPH-reduced CPR-DA, second kinetic phase (UV-Vis double-mixing stopped-flow) was found to be 340000 M⁻¹ s⁻¹.
